Results on two molecules are retold here after patent US20150017171A1 (CHINA SYNTHETIC RUBBER, published 2015).

By Kd is commonly meant the constant that tells how readily two partners part at equilibrium. The term koff denotes a measure of how fast the partners let go of each other. As a reminder, the kon is the rate constant with which the complex forms. The term IC50 denotes the concentration that inhibits the measured activity by half.

The target in experiment [1] is T1, peptide encompassing amino acids 378 to 404 of human PLVAP, expressed by an E. coli clone of the Novatope … (human).
T1 peptide: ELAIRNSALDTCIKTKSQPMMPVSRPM
The experiment in a line: colony blot of Novatope fragment library. The protocol:
PCR was performed using the following thermal cycle: 94° C. for 5 min, followed by 35 cycles of 94° C. for 30 s, 56° C. for 30 s and 72° C. for 60 s. DNA was purified with the Qiaquick PCR purification kit (Qiagen, Surrey, UK) and then used in the construction of a PLVAP Novatope library according to the manufacturer's instructions (Novagen, Merck Biosciences Ltd., Beeston, UK). Briefly, purified PCR product was digested with DNAse I in the presence of Mn²⁺ and fragments between 50-150 base pairs (bp) were gel purified using a gel extraction kit (Qiagen). The DNA fragments were end-filled using T4 DNA polymerase and Tth polymerase to add a single dA residue to each 3′ end and then ligated into the pScreen 1b(+)T-vector (Novagen), which is designed to express small inserts as a carboxy-terminal fusion to the T7 bacterial phage gene 10 capsid protein. The library was transformed into NovaBlue (DE3) cells and plated onto Luria-Bertani (LB) media plates containing carbenicillin (50 μg/ml) and tetracycline (12.5 μg/m). The resulting human PLVAP cDNA library was screened (approximately 10⁴ colonies for each antibody) using the method described in the Novatope manual: Colonies expressing PLVAP fragments were transferred to nitrocellulose filters by contact with the colony for 1 min. Bacterial colonies on the filters were lysed by incubating in a sealed chloroform vapor chamber for 15 min. […]

For experiment [2], the target named is T2, His-tagged human PLVAP51-292 (human, UniProt Q9BX97 51-292).
T2 construct: also called N-terminal portion of the extracellular domain; not shown: His tag and vector residues of pET-15b
T2 sequence: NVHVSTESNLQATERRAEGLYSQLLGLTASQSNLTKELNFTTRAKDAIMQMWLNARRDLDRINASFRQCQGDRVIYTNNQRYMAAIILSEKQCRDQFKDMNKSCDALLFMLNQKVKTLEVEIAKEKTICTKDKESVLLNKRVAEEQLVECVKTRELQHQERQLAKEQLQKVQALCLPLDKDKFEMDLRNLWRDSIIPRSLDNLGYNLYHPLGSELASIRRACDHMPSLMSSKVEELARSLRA
The experiment in a line: immunoblot of total protein extract of E. coli expressing the His-tagged protein. From the text: (§1) Molecular weight protein standards are resolved in Lane M.
(In general: In western blotting, separated proteins are transferred to a membrane and probed.)

For a further experiment, the target named is T3, His-tagged human CEACAM6 (human, UniProt P40199 35-320, limits assumed).
T3 construct: also called human CEACAM6 protein unrelated to PLVAP (lane 4); not shown: His tag
T3 sequence (looked up): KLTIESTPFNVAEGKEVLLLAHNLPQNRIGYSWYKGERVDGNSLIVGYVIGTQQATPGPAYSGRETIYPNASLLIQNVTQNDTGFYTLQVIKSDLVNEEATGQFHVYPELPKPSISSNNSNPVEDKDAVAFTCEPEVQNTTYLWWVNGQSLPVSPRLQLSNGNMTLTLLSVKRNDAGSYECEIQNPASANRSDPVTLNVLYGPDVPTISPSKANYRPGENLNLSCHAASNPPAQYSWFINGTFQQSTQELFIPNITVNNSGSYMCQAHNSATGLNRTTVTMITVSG
The description is as above.
Description: as §1

Experiment [3] has as its target T4, recombinant human PLVAP51-442 protein (extracellular domain, His tag removed by thrombin) (human, UniProt Q9BX97 51-442).
T4 construct: also called recombinant PLVAP protein; recombinant PLVAP
T4 sequence: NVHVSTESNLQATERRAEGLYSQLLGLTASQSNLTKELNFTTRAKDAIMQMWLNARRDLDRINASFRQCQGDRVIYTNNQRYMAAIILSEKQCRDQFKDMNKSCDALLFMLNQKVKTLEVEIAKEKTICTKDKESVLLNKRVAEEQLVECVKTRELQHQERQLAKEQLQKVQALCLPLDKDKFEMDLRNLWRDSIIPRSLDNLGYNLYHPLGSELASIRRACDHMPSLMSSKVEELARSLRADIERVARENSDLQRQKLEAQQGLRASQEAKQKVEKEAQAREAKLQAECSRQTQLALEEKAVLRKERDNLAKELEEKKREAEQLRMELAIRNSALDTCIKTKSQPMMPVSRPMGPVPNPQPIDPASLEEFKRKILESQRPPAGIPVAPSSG
Kind of experiment: ANTQ300 quartz crystal microbalance.

Experiment [4] concerns the target T4, recombinant human PLVAP51-442 protein …. Kind of experiment: Biacore T-100.
Experiment [5] shares this target. The experiment in a line: competition ELISA on coated recombinant PLVAP; competitor biotinylated murine KFCC-GY5 at 0.1 µg/ml. As for the experimental part: The binding of chimeric KFCC-GY4 and KFCC-GY5 antibodies to recombinant PLVAP protein was assessed in a competition ELISA. Either a dilution series of chimeric or control antibody from 30 μg/ml to 0.014 μg/m (final concentration) was premixed with a constant concentration of biotinylated murine KFCC-GY4 (0.3 μg/ml, final concentration) or a dilution series of chimeric or control antibody from 10 μg/ml to 0.004 μg/m (final concentration) was premixed with a constant concentration of biotinylated murine KFCC-GY5 (0.1 μg/ml, final concentration) before incubating for 1 hour at room temperature on a Nunc Immuno MaxiSorp 96 well flat bottom microtitre plate (Fisher Catalogue No. DIS-971-030J) precoated with 1 μg/ml recombinant PLVAP protein diluted in PBS. The binding of the biotinylated mAb was determined by detection with streptavidin-HRP and TMB substrate.
Therefore, the correct variable region sequences for the parent murine monoclonal antibodies were identified and cloned.

Experiment [6] shares this target. The experiment in a line: competition ELISA on coated recombinant PLVAP; competitor biotinylated murine KFCC-GY5. The protocol: The binding of KFCC-GY4 and KFCC-GY5 human antibody variants to recombinant PLVAP was assessed in a competition ELISA. Either a dilution series of variant or control antibody from 30 μg/m to 0.014 μg/m (final concentration) was premixed with a constant concentration of biotinylated murine KFCC-GY4 (0.3 μg/ml, final concentration) or a dilution series of variant or control antibody from 10 μg/m to 0.004 μg/ml (final concentration) was premixed with a constant concentration of biotinylated murine KFCC-GY5 (0.1 μg/ml, final concentration) before incubating for 1 hour at room temperature on a Nunc Immuno MaxiSorp 96 well flat bottom microtitre plate (Fisher Catalogue No. DIS-971-030J) precoated with 1 μg/m recombinant “protein P” diluted in PBS. The binding of the biotinylated mAb was determined by detection with streptavidin-HRP and TMB substrate. After stopping the reaction with 3M HCl, absorbance was measured at 450 nm on a Dynex Technologies MRX TC II plate reader and the binding curves of the test antibodies compared against the mouse reference standard.
Similarly, the four lead variants of IgG4-GY5 and murine KFCC-GY5 antibodies have very similar binding profiles (FIG. 49). All of the lead variants shown are within two-fold of the original murine monoclonal antibody.
For orientation: An ELISA detects its analyte on a solid surface through an enzyme-linked reagent.

B1: KFCC-GY5 monoclonal antibody (murine, hybridoma ATCC PTA-9964) (antibody, mouse IgG1, V domains shown)
VH: QVQLQQPGAELVRPGASVKLSCKASGYTFTSNYINWVKQRPGQGLEWIGNIYPSDGFTNYNQKFKDRATLTVDKSSSTAYMQLSSPTSEDSAVYYCTRNFDVWGAGTTVTVSS
VL: DVVMTQTPLSLPVSLGDQASISCRSSQSLVHSNGNTYLQWYLQKPGQSPKLLIYTVSNRFSGVPDRFSGSGSGPDFTLKISRVEAEDLGVYFCSQSTHVPFTFGSGTKLEIK
notes: also called GY5 mAB; KFCC-GY5 mAb
Turning to B1, the binding result in experiment [1] is “binds”; in experiment [2] it was “no binding”; in the experiment with His-tagged human CEACAM6, “no binding”. Besides, the equilibrium dissociation constant (Kd) in experiment [3] stood at 41 nM; in experiment [4], 59.8 nM. Moreover, in experiment [4], the off-rate constant (koff) was found to be 0.000414 s⁻¹. Moreover, the kon in experiment [4] amounted to 6930 M⁻¹ s⁻¹. In addition, the half-maximal inhibitory concentration (IC50) in experiment [5] turned out to be 0.49 µg/mL; in experiment [6], 0.38 µg/mL. Also, the “IC50 (ratio compared to GY5 mAb)” value in experiment [6] came to 1.

B2: chimeric KFCC-GY5 antibody (CSR02) (antibody, human IgG4, V domains shown)
VH: B1 VH
VL: B1 VL
notes: also called Chimeric GY5; chimeric IgG4-GY5
With B2, in experiment [4], the Kd is 0.978 nM, the koff worked out at 3.01e-05 s⁻¹ and the kon was 30700 M⁻¹ s⁻¹. Further, the IC50 in experiment [5] came out at 0.4 µg/mL.
